From patent publication US5795865A, “Kallikrein-inhibiting "kunitz domain" proteins and analogues thereof” (Dyax Corp., priority 1996, dated 1998)
Where two headings read alike, the source gives them in different places.

Columns and labels:
[1] = target: plasma kallikrein (pKA) (Homo sapiens, UniProt P03952); assay: Inhibition of human plasma kallikrein (measured Ki taken as KD), yeast-expressed purified proteins; type: biochemical; parameters: Hydrolysis of the Arg371 -Ile372 peptide bond yields a two-chain proteinase joined by a disulfide bond; conditions: for Ki: preliminary measurements
Chain of plasma kallikrein (pKA) (P03952 391-638 limits assumed): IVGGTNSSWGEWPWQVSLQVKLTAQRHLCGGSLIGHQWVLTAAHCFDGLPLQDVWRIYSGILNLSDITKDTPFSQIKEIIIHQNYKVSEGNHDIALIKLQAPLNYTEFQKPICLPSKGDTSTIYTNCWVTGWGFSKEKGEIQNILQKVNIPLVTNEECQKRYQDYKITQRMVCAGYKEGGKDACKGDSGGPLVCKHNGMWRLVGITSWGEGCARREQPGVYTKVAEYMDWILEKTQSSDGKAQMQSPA
Chain of plasma kallikrein (pKA) (P03952 20-390 partner limits assumed): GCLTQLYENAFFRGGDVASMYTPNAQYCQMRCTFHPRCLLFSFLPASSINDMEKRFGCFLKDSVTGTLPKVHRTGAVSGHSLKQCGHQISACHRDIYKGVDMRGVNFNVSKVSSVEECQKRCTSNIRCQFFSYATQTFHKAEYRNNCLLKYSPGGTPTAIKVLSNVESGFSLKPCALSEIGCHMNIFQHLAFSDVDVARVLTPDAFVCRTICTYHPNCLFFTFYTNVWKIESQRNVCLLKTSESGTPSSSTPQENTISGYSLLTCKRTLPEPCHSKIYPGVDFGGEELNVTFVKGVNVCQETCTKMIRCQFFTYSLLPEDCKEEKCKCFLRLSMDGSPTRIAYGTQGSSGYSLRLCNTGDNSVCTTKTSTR
Procedure: (§1) A second appropriate method of measuring KD is to measure the inhibitor activity against the enzyme. […] For the proteins of this invention, having KD in the range 5 nM to 50 pM, nanograms to micrograms of inhibitor suffice. When using this method, the competition between the inhibitor and the enzyme substrate can give a measured Ki that is higher than the true Ki. Measurement reported here are not so corrected because the correction would be very small and the any correction would reduce the Ki. Here, we use the measured Ki as a direct measure of KD.
The three isolates KKII/3#6, KK2/#11, and KK2/#13 were recloned into a yeast expression vector. The yeast expression vector is derived from pMFalpha8 (KURJ82 and MIYA85). The LACI variant genes were fused to part of the matα 1 gene, generating a hybrid gene consisting of the matα 1 promoter-signal peptide and leader sequence-fused to the LACI variant. Note that the correctly processed LACI-K1 variant protein should be as detailed in Table 2 with the addition of residues glu-ala-ala-glu (SEQ ID NO: 70) to the N-terminal met (residue 1 in Table 2). Expression in S. cerevisiae gave acceptable yield typical of this system.

[2] = target: T1, human plasma Kallikrein (Homo sapiens, UniProt P03952); assay: Binding of display-phage to kallikrein-agarose beads (Table 8); conditions: for Relative Binding: fraction bound relative to the parental display-phage, LACI-K1; for Fraction Bound: pfu's eluted as a fraction of the input number (10^10 pfu's)
T1 construct: Hydrolysis of the Arg371 -Ile372 peptide bond yields a two-chain proteinase joined by a disulfide bond; purchased Calbiochem 420302
T1 sequence (P03952 391-638 limits assumed): as the sequence (P03952 391-638 limits assumed) above
T1 sequence (P03952 20-390 partner limits assumed): as the sequence (P03952 20-390 partner limits assumed) above
Procedure: This method is highly sensitive because the genetic packages can be amplified. We obtain at least semiquantitative values for the binding constants by use of a pH step gradient. […] Any other suitable method of measuring protein binding may be used.
The overall scheme for selecting a LACI-K1 variant to bind to a given protease involves incubation of the phage-display library with the kallikrein-beads of interest in a buffered solution (PBS containing 1 mg/ml BSA) followed by washing away the unbound and poorly retained display-phage variant with PBS containing 0.1% Tween 20. Kallikrein beads were made by coupling human plasma Kallikrein (Calbiochem, San Diego, Calif., # 420302) to agarose beads using Reactigel (6x) (Pierce, Rockford, II, #202606). The more strongly bound display-phage are eluted with a low pH elution buffer, typically citrate buffer (pH 2.0) containing 1 mg/ml BSA, which is immediately neutralized with Tris buffer to pH 7.5. This process constitutes a single round of selection.

[3] = target: plasmin (Homo sapiens, UniProt P00747); assay: Inhibition of plasmin (Ki); type: biochemical
Chain of plasmin (P00747 581-810 limits assumed): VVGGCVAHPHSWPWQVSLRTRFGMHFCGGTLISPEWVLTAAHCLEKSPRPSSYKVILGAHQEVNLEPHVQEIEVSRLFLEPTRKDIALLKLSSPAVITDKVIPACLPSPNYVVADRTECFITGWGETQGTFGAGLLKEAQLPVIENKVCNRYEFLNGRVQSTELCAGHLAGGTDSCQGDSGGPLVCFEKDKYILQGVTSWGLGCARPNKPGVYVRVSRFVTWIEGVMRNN
Chain of plasmin (P00747 97-580 partner limits assumed): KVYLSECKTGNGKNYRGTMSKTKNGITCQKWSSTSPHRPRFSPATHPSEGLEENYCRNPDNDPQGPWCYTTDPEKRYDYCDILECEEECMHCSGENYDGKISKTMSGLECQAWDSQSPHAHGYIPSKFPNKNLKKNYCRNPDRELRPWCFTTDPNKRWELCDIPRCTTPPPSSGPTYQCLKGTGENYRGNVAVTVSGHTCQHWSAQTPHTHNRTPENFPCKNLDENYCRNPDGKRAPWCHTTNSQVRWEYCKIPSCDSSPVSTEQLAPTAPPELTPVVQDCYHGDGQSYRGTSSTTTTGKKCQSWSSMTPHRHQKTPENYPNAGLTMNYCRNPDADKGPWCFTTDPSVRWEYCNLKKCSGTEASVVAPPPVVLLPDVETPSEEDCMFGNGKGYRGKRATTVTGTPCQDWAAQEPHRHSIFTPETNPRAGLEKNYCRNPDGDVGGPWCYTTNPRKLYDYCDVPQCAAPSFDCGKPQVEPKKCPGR
Procedure: as §1

[4] = about 840 mg, 80 open-heart surgery patients, FRAE89; cited from earlier work
[5] = not corrected for substrate competition, read-out: Ki for plasma kallikrein (pKA)
[6] = stated as 'probably less than', read-out: Ki for plasma kallikrein (pKA), probable bound

Row | Ki [1, 5] [nM] | Ki [1, 6] [nM] | Relative Binding [2] | Fraction Bound [2] | Substance | other results
1 | < 0.3 | < 0.1 | – | – | KK2/#11: second-library LACI-K1 variant Kunitz domain, SEQ ID NO. 22 (MHSFCAFKADDGPCRAAHPRWFFNIFTRQCEEFSYGGCGGNQNRFESLEECKKMCTRD) | –
2 | < 0.3 | < 0.1 | – | – | KK2/#13: second-library LACI-K1 variant Kunitz domain, SEQ ID NO. 19 (MHSFCAFKADGGRCRGAHPRWFFNIFTRQCEEFSYGGCGGNQNRFESLEECKKMCTRD) | –
3 | – | – | 761 | 3.2 × 10^-3 | KKI/3(a): LACI-K1 variant Kunitz domain, phase I selectant, SEQ ID NO. 15 (MHSFCAFKADDGRCKGAHLRFFFNIFTRQCEEFIYGGCEGNQNRFESLEECKKMCTRD) | –
4 | – | – | 524 | 2.2 × 10^-3 | KKI/3(b): LACI-K1 variant Kunitz domain, phase I selectant, SEQ ID NO. 16 (MHSFCAFKADDGPCKAIHLRFFFNIFTRQCEEFIYGGCEGNQNRFESLEECKKMCTRD) | –
5 | – | – | 928 | 3.9 × 10^-3 | KKII/3#5: LACI-K1 variant Kunitz domain, SEQ ID NO. 9 (MHSFCAFKADDGHCKASLPRFFFNIFTRQCEEFIYGGCGGNQNRFESLEECKKMCTRD) | –
6 | ~0.3 | < 0.5 | 2071 | 8.7 × 10^-3 | KKII/3#6: lead pKA inhibitor, LACI-K1 variant Kunitz domain, SEQ ID NO. 10 (MHSFCAFKADDGHCKANHQRFFFNIFTRQCEEFSYGGCGGNQNRFESLEECKKMCTRD) | Ki for kallikrein relative to wild-type LACI and BPTI (times) ([1]; versus both wild-type LACI and BPTI): over 100 times; Ki [3]: 10000 nM
7 | – | – | – | 4.2 × 10^-6 | LACI-K1: first Kunitz domain of human LACI (residues 50 to 107), parental molecule, SEQ ID NO. 3 (MHSFCAFKADDGPCKAIMKRFFFNIFTRQCEEFIYGGCEGNQNRFESLEECKKMCTRD) [reference compound] | –

Row | Substance | Ki [1, 5] [nM] | Ki [1, 6] [nM] | Relative Binding [2] | Fraction Bound [2] | other results
8 | bovine pancreatic trypsin inhibitor [BPTI] | – | – | – | 2.5 × 10^-5 | decrease of mean amount transfused [4]: 74%
